The Km is the substrate concentration at which the rate is half of its maximum. What is called kcat is the number of substrate molecules converted per active site and unit of time at saturation. One may read the kcat/Km as the second-order rate constant that governs catalysis at low substrate concentration.

The data set has as its system N#CO. The experiment in a line: purified protein. It is filed as biochemical, Thermomyces lanuginosus. Conditions: free enzyme, standard assay: co-substrate bicarbonate (0.2 mL of 15 mM NaHCO3 in 1 mL), 50 mM Tris-HCl pH 8, 60 °C.

Regarding TlCyn (Thermomyces lanuginosus), the Km is 440 µM, the kcat was 18400 s⁻¹ and the kcat/Km amounted to 4.19e+07 M⁻¹ s⁻¹.

(Values after paper PMC11435769, “Entrapment of Cyanase from Thermomyces lanuginosus Using Biomimetic Silica and Its Application for Cyanate Bioremediation” (Polymers, 2024).)
